Assay results reported in patent US20260217779A1.

What was measured:
Assay in all cases: cell-based or functional assay
[1] = biological target: hCXCL10R75A.0049-G1T4k.one//VHn-G1T4h.one.H435R (human) [IgG part: P01857]
[2] = biological target: hCXCL10R75A.0009-G1T4k.one//VHn-G1T4h.one.H435R (human) [IgG part: P01857]
[3] = biological target: hCXCL10R75A.0015-G1T4k.one//VHn-G1T4h.one.H435R (human) [IgG part: P01857]
[4] = biological target: hCXCL10R75A.0007-G1T4k.one//VHn-G1T4h.one.H435R (human) [IgG part: P01857]
[5] = biological target: hCXCL10R75A.0018-G1T4k.one//VHn-G1T4h.one.H435R (human) [IgG part: P01857]
[6] = biological target: hCXCL10R75A.0038-G1T4k.one//VHn-G1T4h.one.H435R (human) [IgG part: P01857]
[7] = biological target: hCXCL10R75A.0047-G1T4k.one//VHn-G1T4h.one.H435R (human) [IgG part: P01857]
[8] = biological target: hCXCL10R75A.0023-G1T4k.one//VHn-G1T4h.one.H435R (human) [IgG part: P01857]
[9] = biological target: hCXCL10R75A.0005-G1T4k.one//VHn-G1T4h.one.H435R (human) [IgG part: P01857]
[10] = biological target: hCXCL10R75A.0016-G1T4k.one//VHn-G1T4h.one.H435R (human) [IgG part: P01857]
[11] = biological target: hCXCL10R75A.0044-G1T4k.one//VHn-G1T4h.one.H435R (human) [IgG part: P01857]
[12] = biological target: hCXCL10R75A.0027-G1T4k.one//VHn-G1T4h.one.H435R (human) [IgG part: P01857]
[13] = biological target: hCXCL10R75A.0036-G1T4k.one//VHn-G1T4h.one.H435R (human) [IgG part: P01857]
[14] = biological target: hCXCL10R75A.0053-G1T4k.one//VHn-G1T4h.one.H435R (human) [IgG part: P01857]
[15] = biological target: hCXCL10R75A.0025-G1T4k.one//VHn-G1T4h.one.H435R (human) [IgG part: P01857]
[16] = biological target: hCXCL10R75A.0031-G1T4k.one//VHn-G1T4h.one.H435R (human) [IgG part: P01857]
[17] = biological target: hCXCL10R75A.0010-G1T4k.one//VHn-G1T4h.one.H435R (human) [IgG part: P01857]
[18] = biological target: hCXCL10R75A.0042-G1T4k.one//VHn-G1T4h.one.H435R (human) [IgG part: P01857]
[19] = biological target: hCXCL10R75A.0033-G1T4k.one//VHn-G1T4h.one.H435R (human) [IgG part: P01857]
[20] = biological target: hCXCL10R75A.0001-G1T4k.one//VHn-G1T4h.one.H435R (human) [IgG part: P01857]
[21] = biological target: hCXCL10R75A.0017-G1T4k.one//VHn-G1T4h.one.H435R (human) [IgG part: P01857]
[22] = biological target: hCXCL10R75A.0004-G1T4k.one//VHn-G1T4h.one.H435R (human) [IgG part: P01857]
[23] = biological target: hCXCL10R75A-G1T4k.one//VHn-G1T4h.one.H435R (human) [IgG part: P01857]
[24] = biological target: hCXCL10R75A.0034-G1T4k.one//VHn-G1T4h.one.H435R (human) [IgG part: P01857]
[25] = biological target: hCXCL10R75A.0041-G1T4k.one//VHn-G1T4h.one.H435R (human) [IgG part: P01857]
[26] = biological target: hCXCL10R75A.0054-G1T4k.one//VHn-G1T4h.one.H435R (human) [IgG part: P01857]
[27] = biological target: hCXCL10R75A.0019-G1T4k.one//VHn-G1T4h.one.H435R (human) [IgG part: P01857]
[28] = biological target: hCXCL10R75A.0029-G1T4k.one//VHn-G1T4h.one.H435R (human) [IgG part: P01857]

human dipeptidyl peptidase IV (human DPPIV, hDPPIV) (Biolegend, 764102), sequence (P27487 29-766 limits assumed): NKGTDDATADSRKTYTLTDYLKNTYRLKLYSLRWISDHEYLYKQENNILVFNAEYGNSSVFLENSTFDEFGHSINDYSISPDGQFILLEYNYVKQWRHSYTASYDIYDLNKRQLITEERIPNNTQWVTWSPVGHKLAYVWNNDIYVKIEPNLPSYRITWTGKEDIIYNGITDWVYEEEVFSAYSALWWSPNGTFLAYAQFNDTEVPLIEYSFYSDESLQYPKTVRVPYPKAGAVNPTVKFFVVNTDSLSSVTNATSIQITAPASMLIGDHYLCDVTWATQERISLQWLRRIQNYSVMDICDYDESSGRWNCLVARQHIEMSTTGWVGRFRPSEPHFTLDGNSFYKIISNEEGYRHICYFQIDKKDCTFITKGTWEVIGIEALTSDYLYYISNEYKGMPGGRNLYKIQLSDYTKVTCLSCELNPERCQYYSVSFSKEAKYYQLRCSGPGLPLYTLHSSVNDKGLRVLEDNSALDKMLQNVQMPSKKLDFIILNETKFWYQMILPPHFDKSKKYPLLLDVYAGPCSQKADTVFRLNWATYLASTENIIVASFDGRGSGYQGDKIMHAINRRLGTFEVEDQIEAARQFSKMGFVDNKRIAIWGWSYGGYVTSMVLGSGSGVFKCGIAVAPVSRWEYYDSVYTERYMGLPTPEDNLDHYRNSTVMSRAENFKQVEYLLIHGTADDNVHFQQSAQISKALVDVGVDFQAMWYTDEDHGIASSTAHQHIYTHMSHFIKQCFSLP
hCXCL10R75A.0047-G1T4k.one//VHn-G1T4h.one.H435R (human) [IgG part: P01857], sequence (P01857 other isoform, or with tags, fused parts or gaps H435R H435R, chain 1 of 2): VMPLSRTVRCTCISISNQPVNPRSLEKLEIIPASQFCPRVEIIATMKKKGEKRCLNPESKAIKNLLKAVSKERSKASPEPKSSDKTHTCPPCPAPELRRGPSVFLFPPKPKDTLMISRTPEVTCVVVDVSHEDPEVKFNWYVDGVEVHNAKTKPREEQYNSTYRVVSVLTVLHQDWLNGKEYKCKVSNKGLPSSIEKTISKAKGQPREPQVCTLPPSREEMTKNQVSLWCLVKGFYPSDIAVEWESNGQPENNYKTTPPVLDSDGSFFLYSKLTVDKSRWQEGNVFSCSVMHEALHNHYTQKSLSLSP
hCXCL10R75A.0047-G1T4k.one//VHn-G1T4h.one.H435R (human) [IgG part: P01857], sequence (P01857 other isoform, or with tags, fused parts or gaps H435R H435R, chain 2 of 2): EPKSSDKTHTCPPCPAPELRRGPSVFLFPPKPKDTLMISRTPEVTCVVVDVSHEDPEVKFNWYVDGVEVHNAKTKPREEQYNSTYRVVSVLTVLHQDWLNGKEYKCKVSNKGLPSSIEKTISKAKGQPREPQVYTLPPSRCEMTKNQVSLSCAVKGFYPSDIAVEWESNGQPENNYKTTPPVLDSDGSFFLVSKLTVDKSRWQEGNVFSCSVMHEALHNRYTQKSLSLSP
hCXCL10R75A.0038-G1T4k.one//VHn-G1T4h.one.H435R (human) [IgG part: P01857], sequence (P01857 other isoform, or with tags, fused parts or gaps H435R H435R, chain 1 of 2): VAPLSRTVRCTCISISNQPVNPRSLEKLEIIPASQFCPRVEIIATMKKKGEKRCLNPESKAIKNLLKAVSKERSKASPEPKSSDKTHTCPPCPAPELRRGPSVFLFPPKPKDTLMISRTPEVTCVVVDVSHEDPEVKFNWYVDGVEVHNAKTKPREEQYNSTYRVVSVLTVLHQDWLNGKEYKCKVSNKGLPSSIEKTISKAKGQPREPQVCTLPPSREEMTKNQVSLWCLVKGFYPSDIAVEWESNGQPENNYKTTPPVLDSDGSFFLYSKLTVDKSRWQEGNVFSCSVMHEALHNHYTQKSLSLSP
hCXCL10R75A.0038-G1T4k.one//VHn-G1T4h.one.H435R (human) [IgG part: P01857], sequence (P01857 other isoform, or with tags, fused parts or gaps H435R H435R, chain 2 of 2): as the sequence (P01857 other isoform, or with tags, fused parts or gaps H435R H435R, chain 2 of 2) above
hCXCL10R75A.0025-G1T4k.one//VHn-G1T4h.one.H435R (human) [IgG part: P01857], sequence (P01857 other isoform, or with tags, fused parts or gaps H435R H435R, chain 1 of 2): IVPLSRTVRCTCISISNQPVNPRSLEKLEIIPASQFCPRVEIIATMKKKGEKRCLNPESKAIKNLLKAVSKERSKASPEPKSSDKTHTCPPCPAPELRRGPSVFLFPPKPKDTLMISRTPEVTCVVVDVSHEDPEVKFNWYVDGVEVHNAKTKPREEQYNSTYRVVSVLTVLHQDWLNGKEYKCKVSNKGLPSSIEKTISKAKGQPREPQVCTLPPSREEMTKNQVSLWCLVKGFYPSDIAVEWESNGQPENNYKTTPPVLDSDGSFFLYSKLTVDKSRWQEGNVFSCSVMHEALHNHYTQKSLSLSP
hCXCL10R75A.0025-G1T4k.one//VHn-G1T4h.one.H435R (human) [IgG part: P01857], sequence (P01857 other isoform, or with tags, fused parts or gaps H435R H435R, chain 2 of 2): as the sequence (P01857 other isoform, or with tags, fused parts or gaps H435R H435R, chain 2 of 2) above
hCXCL10R75A.0041-G1T4k.one//VHn-G1T4h.one.H435R (human) [IgG part: P01857], sequence (P01857 other isoform, or with tags, fused parts or gaps H435R H435R, chain 1 of 2): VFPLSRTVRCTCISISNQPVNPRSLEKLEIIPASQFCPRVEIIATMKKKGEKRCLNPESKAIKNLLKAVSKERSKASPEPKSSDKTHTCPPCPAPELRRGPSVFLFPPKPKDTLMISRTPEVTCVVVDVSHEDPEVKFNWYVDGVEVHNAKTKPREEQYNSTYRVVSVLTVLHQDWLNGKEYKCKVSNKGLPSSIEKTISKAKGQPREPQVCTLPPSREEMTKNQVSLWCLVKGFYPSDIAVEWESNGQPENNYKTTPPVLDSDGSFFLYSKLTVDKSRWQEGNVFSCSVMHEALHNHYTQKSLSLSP
hCXCL10R75A.0041-G1T4k.one//VHn-G1T4h.one.H435R (human) [IgG part: P01857], sequence (P01857 other isoform, or with tags, fused parts or gaps H435R H435R, chain 2 of 2): as the sequence (P01857 other isoform, or with tags, fused parts or gaps H435R H435R, chain 2 of 2) above
hCXCL10R75A.0034-G1T4k.one//VHn-G1T4h.one.H435R (human) [IgG part: P01857], sequence (P01857 other isoform, or with tags, fused parts or gaps H435R H435R, chain 1 of 2): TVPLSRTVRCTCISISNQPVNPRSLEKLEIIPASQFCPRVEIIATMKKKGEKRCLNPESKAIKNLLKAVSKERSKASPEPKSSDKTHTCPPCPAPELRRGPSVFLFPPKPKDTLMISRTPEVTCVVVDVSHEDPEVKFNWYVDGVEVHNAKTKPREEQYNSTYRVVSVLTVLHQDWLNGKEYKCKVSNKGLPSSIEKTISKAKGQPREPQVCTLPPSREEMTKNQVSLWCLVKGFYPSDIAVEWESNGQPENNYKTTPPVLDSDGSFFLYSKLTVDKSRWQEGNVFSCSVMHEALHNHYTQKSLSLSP
hCXCL10R75A.0034-G1T4k.one//VHn-G1T4h.one.H435R (human) [IgG part: P01857], sequence (P01857 other isoform, or with tags, fused parts or gaps H435R H435R, chain 2 of 2): as the sequence (P01857 other isoform, or with tags, fused parts or gaps H435R H435R, chain 2 of 2) above
hCXCL10R75A.0016-G1T4k.one//VHn-G1T4h.one.H435R (human) [IgG part: P01857], sequence (P01857 other isoform, or with tags, fused parts or gaps H435R H435R, chain 1 of 2): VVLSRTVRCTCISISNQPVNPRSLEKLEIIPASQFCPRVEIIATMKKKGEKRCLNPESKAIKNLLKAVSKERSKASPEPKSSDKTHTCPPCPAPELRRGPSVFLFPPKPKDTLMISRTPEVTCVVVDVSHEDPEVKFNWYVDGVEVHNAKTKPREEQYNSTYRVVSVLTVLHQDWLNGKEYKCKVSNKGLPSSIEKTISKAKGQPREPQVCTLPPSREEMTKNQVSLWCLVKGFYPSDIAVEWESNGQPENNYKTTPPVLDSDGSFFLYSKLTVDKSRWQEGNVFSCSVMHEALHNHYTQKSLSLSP
hCXCL10R75A.0016-G1T4k.one//VHn-G1T4h.one.H435R (human) [IgG part: P01857], sequence (P01857 other isoform, or with tags, fused parts or gaps H435R H435R, chain 2 of 2): as the sequence (P01857 other isoform, or with tags, fused parts or gaps H435R H435R, chain 2 of 2) above
hCXCL10R75A.0005-G1T4k.one//VHn-G1T4h.one.H435R (human) [IgG part: P01857], sequence (P01857 other isoform, or with tags, fused parts or gaps H435R H435R, chain 1 of 2): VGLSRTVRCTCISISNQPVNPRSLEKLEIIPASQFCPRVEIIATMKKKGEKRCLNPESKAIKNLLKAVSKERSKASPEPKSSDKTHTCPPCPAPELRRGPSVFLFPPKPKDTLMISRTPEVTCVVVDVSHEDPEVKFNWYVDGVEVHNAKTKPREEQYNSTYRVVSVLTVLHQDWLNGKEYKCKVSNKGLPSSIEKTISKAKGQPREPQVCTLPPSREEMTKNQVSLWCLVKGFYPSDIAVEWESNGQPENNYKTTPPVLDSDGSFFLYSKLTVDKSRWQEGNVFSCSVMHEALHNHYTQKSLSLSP
hCXCL10R75A.0005-G1T4k.one//VHn-G1T4h.one.H435R (human) [IgG part: P01857], sequence (P01857 other isoform, or with tags, fused parts or gaps H435R H435R, chain 2 of 2): as the sequence (P01857 other isoform, or with tags, fused parts or gaps H435R H435R, chain 2 of 2) above

mass change after hDPPIV treatment (LC/MS) [1]: 1 Da
mass change after hDPPIV treatment (LC/MS) [2]: 1 Da
mass change after hDPPIV treatment (LC/MS) [3]: 0 Da
mass change after hDPPIV treatment (LC/MS) [4]: 1 Da
mass change after hDPPIV treatment (LC/MS) [5]: 0 Da
mass change after hDPPIV treatment (LC/MS) [6]: 0 Da
mass change after hDPPIV treatment (LC/MS) [7]: 0 Da
mass change after hDPPIV treatment (LC/MS) [8]: 1 Da
mass change after hDPPIV treatment (LC/MS) [9]: -1 Da
mass change after hDPPIV treatment (LC/MS) [10]: 1 Da
mass change after hDPPIV treatment (LC/MS) [11]: 0 Da
mass change after hDPPIV treatment (LC/MS) [12]: 1 Da
mass change after hDPPIV treatment (LC/MS) [13]: 0 Da
mass change after hDPPIV treatment (LC/MS) [14]: -2 Da
mass change after hDPPIV treatment (LC/MS) [15]: 0 Da
mass change after hDPPIV treatment (LC/MS) [16]: 0 Da
mass change after hDPPIV treatment (LC/MS) [17]: -1 Da
mass change after hDPPIV treatment (LC/MS) [18]: 1 Da
mass change after hDPPIV treatment (LC/MS) [19]: 2 Da
mass change after hDPPIV treatment (LC/MS) [20]: 171 Da
mass change after hDPPIV treatment (LC/MS) [21]: 0 Da
mass change after hDPPIV treatment (LC/MS) [22]: 1 Da
mass change after hDPPIV treatment (LC/MS) [23]: 195 Da
mass change after hDPPIV treatment (LC/MS) [24]: 0 Da
mass change after hDPPIV treatment (LC/MS) [25]: 0 Da
mass change after hDPPIV treatment (LC/MS) [26]: 0 Da
mass change after hDPPIV treatment (LC/MS) [27]: 1 Da
mass change after hDPPIV treatment (LC/MS) [28]: -1 Da
Substance: human dipeptidyl peptidase IV (human DPPIV, hDPPIV) (Biolegend, 764102) (from UniProt P27487 29-766) (enzyme)
